Reference: patent US20200308299A1 (NATIONAL UNIVERSITY CORPORATION KOCHI UNIVERSITY, published 2020)

B1: anti-Glypican-1 antibody clone K090-02b006 (antibody, mouse IgG2a, kappa, V domains shown)
VH: EVQLVESGGGLVKPGGSRKLSCAASGFTFSDYGMHWVRQAPEKGLEWVAYISSGSSTIYYADTVKGRFTISRDNAKNTLFLQMTSLRSEDTAIYYCVRHSYYNYDIGGYYAMDYWGQGTSVTVSS
VL: DIVLTQSPSSLSASLGERVSLTCRASQEISGYLSWLQQKPDGTIKRLIYAASTLDSGVPKRFSGSRSGSDYSLTISSLESEDFADYYCLQYASYPLTFGAGTKLEIKR
notes: also called biotin-labeled 02b006; biotin-labeled anti-GPC1 antibody 02b006
B2: GPC1-CL-MMAF (clone 01a033 conjugated to MC-vc-PAB-MMAF) (antibody, V domains shown)
VH: QVQLKQSGPELVKPGASVKISCKASGYSFTGYYMHWVKQSPEKSLEWIGEINPSTGDTTYNQKFKAKATLTVDKSSSTAYMQLKSLTSEDSAVYYCAREKRDDGVFAYWGQGTLVTVSS
VL: DIVMSQSPKSMSMSVGERVALSCKASENVGTYVSWYQQKPEQSPKLLIYGASNRYTGVPDRFTGSGSATDFTLTISSVQAEDLADYYCGQSYSYPLTFGAGTKLELKR
modifications: MC-vc-PAB-MMAF bound by maleimide to reduced inter-strand cysteines; DAR 4.1 (printed as 3.8 in paragraph 359)
notes: Antibody-drug conjugate of mouse IgG2a clone 01a033; also called 01a033 ADC; GPC1 ADC

Assays:
[1] = molecular target: T1, human Glypican-1 on the surface of human cancer cell strains (TE8, TE14 and others) (human, UniProt P35052 24-530); assay: flow cytometry on TE8 cells, biotin-labelled 02b006 and streptavidin-PE
T1 construct: Endogenous GPC1 of the cell strains; also called GPC1; GPC-1
T1 sequence: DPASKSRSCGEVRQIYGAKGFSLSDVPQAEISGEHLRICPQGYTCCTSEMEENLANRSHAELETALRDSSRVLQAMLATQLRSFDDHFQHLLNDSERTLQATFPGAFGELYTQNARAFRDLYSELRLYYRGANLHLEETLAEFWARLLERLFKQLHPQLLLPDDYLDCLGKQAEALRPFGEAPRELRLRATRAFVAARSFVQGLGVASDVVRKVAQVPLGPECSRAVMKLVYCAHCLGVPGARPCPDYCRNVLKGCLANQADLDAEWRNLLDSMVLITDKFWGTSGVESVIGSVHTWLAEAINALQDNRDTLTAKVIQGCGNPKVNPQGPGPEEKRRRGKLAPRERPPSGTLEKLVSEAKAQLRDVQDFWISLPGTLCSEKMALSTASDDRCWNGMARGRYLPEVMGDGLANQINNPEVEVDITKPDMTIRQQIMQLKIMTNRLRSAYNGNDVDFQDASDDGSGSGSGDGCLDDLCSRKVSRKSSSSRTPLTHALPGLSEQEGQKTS

[2] = molecular target: T2, human Glypican-1 (human, UniProt P35052 24-530, limits assumed); assay: phage scFv panning, ELISA on immobilised human GPC1, cell-ELISA and flow cytometry on human GPC1 transformants and TE14 (Example 1)
T2 construct: also called human GPC1
T2 sequence: T1 sequence

[3] = molecular target: T3, mouse Glypican-1 expressed on LLC-mGPC1-16 cells (mouse, UniProt Q9QZF2 24-529); assay: cell-based or functional assay
T3 sequence: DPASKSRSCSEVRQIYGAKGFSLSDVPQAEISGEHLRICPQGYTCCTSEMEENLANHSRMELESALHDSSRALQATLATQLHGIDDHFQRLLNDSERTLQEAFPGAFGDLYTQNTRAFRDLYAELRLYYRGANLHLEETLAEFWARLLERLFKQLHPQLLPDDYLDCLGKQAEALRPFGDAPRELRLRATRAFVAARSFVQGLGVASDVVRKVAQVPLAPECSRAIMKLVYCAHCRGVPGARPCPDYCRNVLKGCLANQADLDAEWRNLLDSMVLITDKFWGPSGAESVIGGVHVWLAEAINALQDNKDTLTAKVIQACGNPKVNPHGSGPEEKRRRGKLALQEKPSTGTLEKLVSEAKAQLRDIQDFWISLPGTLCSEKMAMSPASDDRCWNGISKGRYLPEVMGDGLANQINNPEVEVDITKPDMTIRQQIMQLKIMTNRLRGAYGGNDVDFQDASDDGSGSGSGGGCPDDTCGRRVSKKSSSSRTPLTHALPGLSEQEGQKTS

[4] = molecular target: T4, recombinant human Glypican-1 protein (R&D Systems, CF, 4519-GP-050) (human, UniProt P35052 24-530); assay: ELISA on plate-coated recombinant human GPC1
T4 construct: Bought protein; also called recombinant human GPC1
T4 sequence: T1 sequence

| Binder | binding result [1] | binding result [2] | effect of suppressing growth (CellTiter-Glo, 72 hours), LLC-mGPC1-16 against LLC-control-7 [3] [fold] | binding result [4] |
| --- | --- | --- | --- | --- |
| B1 | binds | binds | – | – |
| B2 | – | – | 17 | binds |
